B1: ZNF232 (parent)
chain: FPKSEQVYLHFLSVVTEDGPEPKD
B2: PWWP2B (parent)
chain: TIRLRPRQVLCEKCKSTLSPPEAS

Variants of: B1
Assay: protein stability index of a GFP-peptide fusion (GPS, HEK-293T) (PSI 1-6); higher = more stable
Settings: c terminus: a fixed tail appended
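Also: lentivirally expressed fusions sorted by FACS into six bins by GFP to DsRed ratio, PSI derived from sequencing read proportions per bin multiplied by bin number.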

Protein stability index, by site and new letter:
S4: C 1.74, G 1.66, H 2.26, I 2.58, F 2.49, E 2.95, L 1.78, D 2.24, A 1.77, M 2.35, K 1.89
K3: C 2.51, F 2.61, Q 2.12, L 3.27, Y 2.02, S 2.7, N 2.71, I 2.23, A 2.85, V 2.33, D 2.35, P 2.46, H 2.09, M 2.69, W 1.95, T 2.75, E 3.36, G 3.07
P2: V 2.26, F 2.37, N 2.8, A 1.91, L 2.29, D 3.92, Q 2.14, T 2.68, W 2.44, C 2.75, K 2.91, I 2.72, Y 2.89, G 2.78, H 1.54, E 4.04, M 2.28
F1: G 3.98, A 4.31, E 4.82, W 3, C 4.31, M 4.15, R 3.89, I 3.73, V 3.92, N 4.29, D 4.86, L 3.95, K 4.44, Q 4.75, Y 2.01, T 4.05, P 4.28, H 3.88, S 3.69

Variants of: B2
Assay: as above
Settings: c terminus: a fixed tail appended

Protein stability index, by site and new letter:
P21: M 2.73, W 2.35, G 2.78, D 3.89, I 2.67, E 3.63, C 2.72, L 2.08, S 3.5, Y 2.42, N 2.95, H 2.79, F 2.56, Q 2.98, K 3.21, T 2.69, V 2.95, A 3.29, R 2.72
S19: R 2.59, P 3.16, Q 3.01, Y 2.94, W 1.84, V 3.18, T 2.37
S24: H 2.63, A 2.64, I 2.78, L 2.66, V 2.62, M 1.97, E 3.28, C 2.99, Q 3.09, F 2.36, K 2.7, Y 2.89, G 2.6, W 1.93, N 2.98, D 3.44, P 2.9, T 3.25, R 3.02
A23: W 1.96, D 3.54, L 2.47, P 3.3, Y 2.47, R 2.73, G 2.87, I 2.61, Q 3.94, M 3.01, E 3.49, S 2.75, H 2.83, T 2.99, K 3.02, C 3.15, V 2.91, F 2.43, N 3.12
E22: N 2.46, L 2.85, A 2.66, D 3.41, C 2.42, G 2.18, S 2.81, R 2.32, F 2.02, M 2.4, Q 2.58, K 2.62, I 2.09, Y 2.31, H 2.34, V 3.18, W 1.94, P 2.69, T 3.15
P20: F 2.26, L 2.41, I 2.44, E 3.22, G 3.29, N 2.63, S 2.79, D 3.5, V 2.9, W 2.45, K 2.66, A 2.79, Q 3.03, C 2.87, R 2.65, M 2.55, Y 2.42, H 2.24, T 2.76

Source: the supplement of paper PMC10567573
